Measured values from patent publication US7122382.

Target: SV40 large T (SV40), P03070
Assay: biotinylated row protein on streptavidin beads, 35S column protein counted
Details: remark: other sources report otherwise

B1: p53, P02340 1-390 (protein)
chain: MTAMEESQSDISLELPLSQETFSGLWKLLPPEDILPSPHCMDDLLLPQDVEEFFEGPSEALRVSGAPAAQDPVTETPGPVAPAPATPWPLSSFVPSQKTYQGNYGFHLGFLQSGTAKSVMCTYSPPLNKLFCQLAKTCPVQLWVSATPPAGSRVRAMAIYKKSQHMTEVVRRCPHHERCSDGDGLAPPQHLIRVEGNLYPEYLEDRQTFRHSVVVPYEPPEAGSEYTTIHYKYMCNSSCMGGMNRRPILTIITLEDSSGNLLGRDSFEVRVCACPGRDRRTEEENFRKKEVLCPELPPGSAKRALPTCTSASPPQKKKPLDGEYFTLKIRGRKRFEMFRELNEALELKDAHATEESGDSRAHSSYLKTKKGQSTSRHKKTMVKKVGPDSD
modifications: here or on the partner: 35S-methionine label or biotinylated lysine, by its role in the assay
With B1 as the binder, how does the RI (c.p.m.) read?
The RI (c.p.m.) was 884 c.p.m.
